{"source": "paper PMC4783044", "about": "“Stoichiometry and Change of the mRNA Closed-Loop Factors as Translating Ribosomes Transit from Initiation to Elongation” (PLoS ONE, 2016)", "molecules": {"B1": {"name": "SSD1-GFP (natural protein, yeast, UniProt P24276 1-1250, looked up)", "chain": "MSKNSNVNNNRSQEPNNMFVQTTGGGKNAPKQIHVAHRRSQSELTNLMIEQFTLQKQLEQVQAQQQQLMAQQQQLAQQTGQYLSGNSGSNNHFTPQPPHPHYNSNGNSPGMSAGGSRSRTHSRNNSGYYHNSYDNNNNSNNPGSNSHRKTSSQSSIYGHSRRHSLGLNEAKKAAAEEQAKRISGGEAGVTVKIDSVQADSGSNSTTEQSDFKFPPPPNAHQGHRRATSNLSPPSFKFPPNSHGDNDDEFIATSSTHRRSKTRNNEYSPGINSNWRNQSQQPQQQLSPFRHRGSNSRDYNSFNTLEPPAIFQQGHKHRASNSSVHSFSSQGNNNGGGRKSLFAPYLPQANIPELIQEGRLVAGILRVNKKNRSDAWVSTDGALDADIYICGSKDRNRALEGDLVAVELLVVDDVWESKKEKEEKKRRKDASMQHDLIPLNSSDDYHNDASVTAATSNNFLSSPSSSDSLSKDDLSVRRKRSSTINNDSDSLSSPTKSGVRRRSSLKQRPTQKKNDDVEVEGQSLLLVEEEEINDKYKPLYAGHVVAVLDRIPGQLFSGTLGLLRPSQQANSDNNKPPQSPKIAWFKPTDKKVPLIAIPTELAPKDFVENADKYSEKLFVASIKRWPITSLHPFGILVSELGDIHDPDTEIDSILRDNNFLSNEYLDQKNPQKEKPSFQPLPLTAESLEYRRNFTDTNEYNIFAISELGWVSEFALHVRNNGNGTLELGCHVVDVTSHIEEGSSVDRRARKRSSAVFMPQKLVNLLPQSFNDELSLAPGKESATLSVVYTLDSSTLRIKSTWVGESTISPSNILSLEQLDEKLSTGSPTSYLSTVQEIARSFYARRINDPEATLLPTLSLLESLDDEKVKVDLNILDRTLGFVVINEIKRKVNSTVAEKIYTKLGDLALLRRQMQPIATKMASFRKKIQNFGYNFDTNTADELIKGVLKIKDDDVRVGIEILLFKTMPRARYFIAGKVDPDQYGHYALNLPIYTHFTAPMRRYADHVVHRQLKAVIHDTPYTEDMEALKITSEYCNFKKDCAYQAQEQAIHLLLCKTINDMGNTTGQLLTMATVLQVYESSFDVFIPEFGIEKRVHGDQLPLIKAEFDGTNRVLELHWQPGVDSATFIPADEKNPKSYRNSIKNKFRSTAAEIANIELDKEAESEPLISDPLSKELSDLHLTVPNLRLPSASDNKQNALEKFISTTETRIENDNYIQEIHELQKIPILLRAEVGMALPCLTVRALNPFMKRV", "notes": "source: yeast strain carrying the GFP fusion, in crude extract"}, "B2": {"name": "PAB1-GFP (natural protein, yeast, UniProt P04147 1-577, looked up)", "chain": "MADITDKTAEQLENLNIQDDQKQAATGSESQSVENSSASLYVGDLEPSVSEAHLYDIFSPIGSVSSIRVCRDAITKTSLGYAYVNFNDHEAGRKAIEQLNYTPIKGRLCRIMWSQRDPSLRKKGSGNIFIKNLHPDIDNKALYDTFSVFGDILSSKIATDENGKSKGFGFVHFEEEGAAKEAIDALNGMLLNGQEIYVAPHLSRKERDSQLEETKAHYTNLYVKNINSETTDEQFQELFAKFGPIVSASLEKDADGKLKGFGFVNYEKHEDAVKAVEALNDSELNGEKLYVGRAQKKNERMHVLKKQYEAYRLEKMAKYQGVNLFVKNLDDSVDDEKLEEEFAPYGTITSAKVMRTENGKSKGFGFVCFSTPEEATKAITEKNQQIVAGKPLYVAIAQRKDVRRSQLAQQIQARNQMRYQQATAAAAAAAAGMPGQFMPPMFYGVMPPRGVPFNGPNPQQMNPMGGMPKNGMPPQFRNGPVYGVPPQGGFPRNANDNNQFYQQKQRQALGEQLYKKVSAKTSNEEAAGKITGMILDLPPQEVFPLLESDELFEQHYKEASAAYESFKKEQEQQTEQA", "notes": "the printed name puts GFP after the protein; source: yeast strain carrying the GFP fusion, in crude extract"}, "B3": {"name": "eIF4E-GFP (natural protein, yeast, UniProt P07260 1-213, looked up)", "chain": "MSVEEVSKKFEENVSVDDTTATPKTVLSDSAHFDVKHPLNTKWTLWYTKPAVDKSESWSDLLRPVTSFQTVEEFWAIIQNIPEPHELPLKSDYHVFRNDVRPEWEDEANAKGGKWSFQLRGKGADIDELWLRTLLAVIGETIDEDDSQINGVVLSIRKGGNKFALWTKSEDKEPLLRIGGKFKQVLKLTDDGHLEFFPHSSANGRHPQPSITL", "notes": "as for B2"}, "B4": {"name": "SLF1-GFP (natural protein, yeast, UniProt Q12034 1-447, looked up)", "chain": "MSSQNLNDNPKNTSSAAEDKKKQTSSLKLAPIPTTSPWKSSSPDSNTVIPVEELRDISKTAKPSKNGSGSIKLTSNTKWTPITPSVIISGSKDTNSKSGKNSKNSKTNKKMKKRGKYNNDINKKDFNGQTNSTSEISNVSNLESKPLDANAKVNIHSSSGATANGNIKRITNNNNSTNGRQSRNYQNRNGKTRYNNNSRHSQAANNAISFPNNYQARPEYIPNASHWLNNNSRNSYKQLSYFRQQQYYNNINYQQQLQTPYYYSMEPIFKSIESIKNQIEFYFSEENLKTDEFLRSKFKKANDGFIPMSLIGKFYRMVNLSLGGDPNLILASMREVLQHKETNHLEIALGSIEGAQKNMADDFNPLENYFIRRENWAEYAMESNFDENDDETEKYNIEKLLGPNDLDNYSYMGYPNFFPSNENGKKSQSYDQGEISRQFEQNLQIND", "notes": "as for B1"}}, "key": {"Flag-PAB1 [1]": {"molecular_target": "T1, Flag-PAB1 (yeast, UniProt P04147 1-577)", "T1 sequence (looked up)": "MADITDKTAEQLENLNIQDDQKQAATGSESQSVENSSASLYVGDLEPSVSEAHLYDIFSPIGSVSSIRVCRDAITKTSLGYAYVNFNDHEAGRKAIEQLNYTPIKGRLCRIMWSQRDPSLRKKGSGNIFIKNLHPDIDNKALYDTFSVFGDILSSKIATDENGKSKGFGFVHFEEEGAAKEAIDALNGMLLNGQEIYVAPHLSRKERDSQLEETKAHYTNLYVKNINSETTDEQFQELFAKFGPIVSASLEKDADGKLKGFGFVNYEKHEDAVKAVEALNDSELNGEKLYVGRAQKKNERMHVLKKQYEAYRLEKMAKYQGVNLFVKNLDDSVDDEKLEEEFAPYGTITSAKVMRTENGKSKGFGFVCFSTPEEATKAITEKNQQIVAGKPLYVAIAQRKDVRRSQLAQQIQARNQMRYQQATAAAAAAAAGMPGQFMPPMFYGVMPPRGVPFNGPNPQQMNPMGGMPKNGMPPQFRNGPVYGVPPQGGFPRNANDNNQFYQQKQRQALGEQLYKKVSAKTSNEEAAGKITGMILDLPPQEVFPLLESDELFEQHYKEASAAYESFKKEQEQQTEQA", "assay": "co-IP + AUC; one-step anti-Flag bead purification from yeast crude extract (Tris pH 7.5, 0.15 M KCl, 2 mM MgCl2, 10% glycerol, 4°C), Flag peptide elution, then AU-FDS of the GFP fusion with AU-A230 or AU-A260 (20°C, 15,000 rpm); material migrating at 77S (monosomal translating complex); cycloheximide added to cells; cells on glucose (elongation), or glucose depleted 10 min and glucose added back for 1 min or 0 min (initiation)"}, "Flag-PAB1 [2]": {"molecular_target": "T1, Flag-PAB1", "assay": "co-IP + AUC; one-step anti-Flag bead purification from yeast crude extract (Tris pH 7.5, 0.15 M KCl, 2 mM MgCl2, 10% glycerol, 4°C), Flag peptide elution, then AU-FDS of the GFP fusion with AU-A230 or AU-A260 (20°C, 15,000 rpm); material migrating at 77S (monosomal translating complex); cycloheximide added to cells; cells on glucose (elongation), or glucose depleted 10 min and glucose added back for 1 min or 0 min …", "conditions": "partners not purified"}, "eIF4E-Flag [3]": {"molecular_target": "T2, eIF4E-Flag (yeast, UniProt P07260 1-213)", "T2 sequence (looked up)": "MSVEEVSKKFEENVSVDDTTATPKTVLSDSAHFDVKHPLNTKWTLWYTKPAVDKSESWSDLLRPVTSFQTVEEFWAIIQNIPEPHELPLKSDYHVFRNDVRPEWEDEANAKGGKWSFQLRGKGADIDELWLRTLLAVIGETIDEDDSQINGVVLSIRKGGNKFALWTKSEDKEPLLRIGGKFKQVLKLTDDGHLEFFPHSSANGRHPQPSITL", "assay": "co-IP + AUC; one-step anti-Flag bead purification from yeast crude extract (Tris pH 7.5, 0.15 M KCl, 2 mM MgCl2, 10% glycerol, 4°C), Flag peptide elution, then AU-FDS of the GFP fusion with AU-A230 or AU-A260 (20°C, 15,000 rpm); material migrating at 77S (monosomal translating complex); cycloheximide added to cells; cells on glucose (elongation), or glucose depleted 10 min and glucose added back for 1 min or 0 min …", "conditions": "partners not purified"}, "Flag-SBP1 (yeast)": {"molecular_target": "Flag-SBP1 (yeast) (UniProt P10080)", "sequence (P10080 whole entry, the tested form may be a part)": "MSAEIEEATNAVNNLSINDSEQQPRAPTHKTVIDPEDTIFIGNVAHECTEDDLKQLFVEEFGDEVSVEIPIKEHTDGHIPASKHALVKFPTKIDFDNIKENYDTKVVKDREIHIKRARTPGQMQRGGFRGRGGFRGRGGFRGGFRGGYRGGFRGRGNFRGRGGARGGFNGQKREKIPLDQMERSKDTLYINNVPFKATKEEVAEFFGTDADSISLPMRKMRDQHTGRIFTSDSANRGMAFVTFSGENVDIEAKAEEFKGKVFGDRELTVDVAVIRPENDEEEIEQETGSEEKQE", "assay": "co-IP + AUC; one-step anti-Flag bead purification from yeast crude extract (Tris pH 7.5, 0.15 M KCl, 2 mM MgCl2, 10% glycerol, 4°C), Flag peptide elution, then AU-FDS of the GFP fusion with AU-A230 or AU-A260 (20°C, 15,000 rpm); material migrating at 77S (monosomal translating complex); cycloheximide added to cells; cells on glucose (elongation), or glucose depleted 10 min and glucose added back for 1 min or 0 min (initiation)"}, "eIF4E-Flag [4]": {"molecular_target": "T2, eIF4E-Flag", "assay": "co-IP + AUC; as a1, but material migrating from 90S to 200S (polysomal translating complexes); cells on glucose (elongation), or glucose depleted 10 min and glucose added back for 1 min (initiation)", "conditions": "partners not purified"}, "Flag-PAB1 [5]": {"molecular_target": "T1, Flag-PAB1", "assay": "co-IP + AUC; as a1, but material migrating from 90S to 200S (polysomal translating complexes); cells on glucose (elongation), or glucose depleted 10 min and glucose added back for 1 min (initiation)", "conditions": "partners not purified"}}, "data": [{"molecule": "PUB1-GFP (from UniProt P32588 1-453) (natural protein)", "values": [{"measurement": "relative level in the 77S monosomal translating complex, mRNA set at 100 (elongation)", "setting": "Flag-PAB1 [1]", "result": "< 0.3", "unit": "per 100 mRNA"}]}, {"molecule": "B1", "values": [{"measurement": "relative level in the 77S monosomal translating complex, mRNA set at 100 (elongation)", "setting": "Flag-PAB1 [2]", "result": 1, "unit": "per 100 mRNA"}, {"measurement": "relative level in the 77S monosomal translating complex, mRNA set at 100 (initiation)", "setting": "Flag-PAB1 [2]", "result": 1.8, "unit": "per 100 mRNA"}]}, {"molecule": "B2", "values": [{"measurement": "relative level in the 77S monosomal translating complex, mRNA set at 100 (elongation)", "setting": "eIF4E-Flag [3]", "result": 12, "unit": "per 100 mRNA"}, {"measurement": "relative level in the 77S monosomal translating complex, mRNA set at 100 (initiation)", "setting": "eIF4E-Flag [3]", "result": 15, "unit": "per 100 mRNA"}, {"measurement": "relative level in the 77S monosomal translating complex, mRNA set at 100 (elongation)", "setting": "Flag-SBP1 (yeast)", "result": "< 0.3", "unit": "per 100 mRNA"}, {"measurement": "relative level in the polysomal translating complexes (90S to 200S), mRNA set at 100 (elongation)", "setting": "eIF4E-Flag [4]", "result": 74, "unit": "per 100 mRNA"}, {"measurement": "relative level in the polysomal translating complexes (90S to 200S), mRNA set at 100 (initiation)", "setting": "eIF4E-Flag [4]", "result": 59, "unit": "per 100 mRNA"}]}, {"molecule": "B3", "values": [{"measurement": "relative level in the 77S monosomal translating complex, mRNA set at 100 (elongation)", "setting": "Flag-PAB1 [2]", "result": 16, "unit": "per 100 mRNA"}, {"measurement": "relative level in the 77S monosomal translating complex, mRNA set at 100 (initiation)", "setting": "Flag-PAB1 [2]", "result": 23, "unit": "per 100 mRNA"}, {"measurement": "relative level in the 77S monosomal translating complex, mRNA set at 100 (elongation)", "setting": "Flag-SBP1 (yeast)", "result": "< 0.3", "unit": "per 100 mRNA"}, {"measurement": "relative level in the polysomal translating complexes (90S to 200S), mRNA set at 100 (elongation)", "setting": "Flag-PAB1 [5]", "result": 27, "unit": "per 100 mRNA"}, {"measurement": "relative level in the polysomal translating complexes (90S to 200S), mRNA set at 100 (initiation)", "setting": "Flag-PAB1 [5]", "result": 38, "unit": "per 100 mRNA"}]}, {"molecule": "B4", "values": [{"measurement": "relative level in the 77S monosomal translating complex, mRNA set at 100 (elongation)", "setting": "Flag-PAB1 [2]", "result": 2.5, "unit": "per 100 mRNA"}, {"measurement": "relative level in the 77S monosomal translating complex, mRNA set at 100 (initiation)", "setting": "Flag-PAB1 [2]", "result": 3.5, "unit": "per 100 mRNA"}]}]}
